According to US20130101555A1 (CYTOMX THERAPEUTICS, published 2013):

What was measured:
[1] = biological target: T1, human Notch1 EGF-like domains 11-13 fused to the Fc domain of human IgG1 (hN111-13-hFc) (human, UniProt P46531 411-526, biotinylated with NHS-PEG-biotin (hN111-13-hFc-biot) or labeled with DyLight-488, depending on the round); experiment: bacterial display library screen, magnetic selection and FACS with labeled hN111-13-hFc
T1 construct: also called hN111-13-hFc-biot; hN111-13-hFc-Dy488; not shown: Fc domain of human IgG1 as encoded by pINFUSE-hIgG1-Fc2 (InvivoGen)
Protocol: Following two rounds of magnetic selection, the remaining rounds of screening were performed on a Becton Dickinson FACSAria flow cytometer. In the first round of FACS, induced cells were incubated with 500 nM hN1₁₁₋₁₃-hFc-biot, 10 μM hIgG in TBS-Ca-B, washed, and incubated with fluorescent secondary label neutravidin-phycoerythrin (NAPE) (Invitrogen) at 10 nM, before sorting by flow cytometry for fluorescently labeled cells. Cells amplified from overnight growth of the first round FACS population were induced and subjected to a second round of sorting with the same labeling conditions as in the first round or, alternatively, using 50 nM hN1₁₁₋₁₃-hFc-biot. A third round of sorting was conducted as in the second round but with 100 nM hN1₁₁₋₁₃-hFc-biot and the addition of 27 nM Ypet-Mona-SH3 in the secondary labeling step. Mona-SH3 binds an epitope on the C-terminus of the display scaffold, independent of the random peptide on the N-terminus. Cells were then sorted based on the ratio of 576 nm fluorescence (i.e. NAPE binding) to 530 nm fluorescence (i.e. Ypet-Mona binding) in order to normalize for differences in scaffold display level on individual cells.
Alternatively, third round sorting was conducted by incubating induced cells with 10 nM or alternatively, 50 nM unbiotinylated hN1₁₁₋₁₃-hFc in TBS-Ca-B before washing, labeling with fluorescent secondary 20 μg/ml anti-hIgG-DyLight-488, and sorting based on 530 nm fluorescence. Third round sorting was also conducted using either 50 nM or 250 nM hN1₁₁₋₁₃-hFc that had been fluorescently labeled with DyLight-488 (Thermo Pierce) (hN1₁₁₋₁₃-hFc-Dy488), and 10 μM hIgG, with no secondary labeling.

[2] = biological target: T1, human Notch1 EGF-like domains 11-13 …; experiment: flow cytometry of induced E. coli clones, 100 nM hN111-13-hFc-biot then 10 nM SAPE, normalized to scaffold display level
Protocol: Individual clones were tested by flow cytometry for hN1₁₁₋₁₃-hFc binding by labeling induced cells in TBS-Ca-B with (A.) 50 nM hN1₁₁₋₁₃-hFc-biot or (B.) 100 nM […] hN1₁₁₋₁₃-hFc-biot, followed by 10 nM Streptavidin-R-phycoerythrin (SAPE). Cells were separately labeled with 27 nM Ypet-Mona to measure peptide display level. The display scaffold alone (ecpX3) was used as a negative control.

T1 sequence (P46531 411-526 limits assumed): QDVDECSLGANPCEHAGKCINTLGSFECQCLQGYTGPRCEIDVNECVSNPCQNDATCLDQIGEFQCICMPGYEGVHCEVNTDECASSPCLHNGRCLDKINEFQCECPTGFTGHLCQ

Row | binding result [1] | binding result [2] | Binder
1 | binds | – | NLDFYLNHLYNTLAG [PHB3476]
2 | binds | – | ELTQLLNALVDVRNC [PHB3486]
3 | binds | – | ATCYIINHWVERYII [PHB3489]
4 | binds | – | IYPLDALLRHLNSLC [PHB3349]
5 | binds | – | CYPSISWLFADAPRN [PHB3485]
6 | binds | – | LLSSFVETMSSILTC [PHB3487]
7 | binds | – | FCYIAAFSAMQRQSC [PHB3334]
8 | binds | – | FLNDIHRFLHWTDLM [PHB3325]
9 | binds | – | ATMYAYLERLEAILS [PHB3343]
10 | binds | – | FPLNTFDLVHELLSR [PHB3324]

More lines, now with the values behind:

Row | Binder | binding result [1] | binding result [2]
11 | PNCIESFLSSIHDSL [PHB3480] | binds | –
12 | RVTCDDYYYGFGCNKFGRPA (also called Jagged1-derived peptide; fragment of JAG1) [peptide derived from Jagged1 displayed by clone Jag-ecpX3] | – | binds
13 | PYTFVEQVEYWLHAT [PHB3327] | binds | –
14 | SAKHLHPGRLPPMTK [PHB3341] | binds | –
15 | TDNALFLETVQHYLY [PHB3482] | binds | –
16 | ACVIHFLDRISNILE [PHB3333] | binds | –
17 | TVLVIPDLHYLYVDR [PHB3337] | binds | –
18 | PLYLPEIGWMFGLPT [PHB3336] | binds | –
19 | CFPTVVWRELYNLYG [PHB3352] | binds | –
20 | YLLRLPSLEELWGPS [PHB3488] | binds | –
21 | FINNVETALDTIYNL [PHB3340] | binds | –
22 | EPKCSFCSPLIVPSP [PHB3479] | binds | –
23 | DFINSMRSHLQSSDQ [PHB3478] | binds | –
